Consider one variant from IntAct's records for PubMed 17141806.

B1: Disintegrin and metalloproteinase domain-containing protein 22 (Homo sapiens), Q9P0K1-1 (parent)
chain: MQAAVAVSVPFLLLCVLGTCPPARCGQAGDASLMELEKRKENRFVERQSIVPLRLIYRSGGEDESRHDALDTRVRGDLGGPQLTHVDQASFQVDAFGTSFILDVVLNHDLLSSEYIERHIEHGGKTVEVKGGEHCYYQGHIRGNPDSFVALSTCHGLHGMFYDGNHTYLIEPEENDTTQEDFHFHSVYKSRLFEFSLDDLPSEFQQVNITPSKFILKPRPKRSKRQLRRYPRNVEEETKYIELMIVNDHLMFKKHRLSVVHTNTYAKSVVNMADLIYKDQLKTRIVLVAMETWATDNKFAISENPLITLREFMKYRRDFIKEKSDAVHLFSGSQFESSRSGAAYIGGICSLLKGGGVNEFGKTDLMAVTLAQSLAHNIGIISDKRKLASGECKCEDTWSGCIMGDTGYYLPKKFTQCNIEEYHDFLNSGGGACLFNKPSKLLDPPECGNGFIETGEECDCGTPAECVLEGAECCKKCTLTQDSQCSDGLCCKKCKFQPMGTVCREAVNDCDIRETCSGNSSQCAPNIHKMDGYSCDGVQGICFGGRCKTRDRQCKYIWGQKVTASDKYCYEKLNIEGTEKGNCGKDKDTWIQCNKRDVLCGYLLCTNIGNIPRLGELDGEITSTLVVQQGRTLNCSGGHVKLEEDVDLGYVEDGTPCGPQMMCLEHRCLPVASFNFSTCLSSKEGTICSGNGVCSNELKCVCNRHWIGSDCNTYFPHNDDAKTGITLSGNGVAGTNIIIGIIAGTILVLALILGITAWGYKNYREQRQLPQGDYVKKPGDGDSFYSDIPPGVSTNSASSSKKRSNGLSHSWSERIPDTKHISDICENGRPRSNSWQGNLGGNKKKIRGKRFRPRSNSTETLSPAKSPSSSTGSIASSRKYPYPMPPLPDEDKKVNRQSARLWETSI

The variants in the assay derive from B1. Conditions: with hck_human HCK.
As to Y882A, the “effect of a mutation on the interaction” value is on record as “decreasing interaction”.
